# Data taken from publication PMC6895263.
# Numbering of substitutions follows the chain as printed. Where two headings read alike, the source gives them in different places.
# T1: GST-ZBTB24 ZF1-8 C407G (Mus musculus, UniProt Q80X44 288-519, C407G)
# T1 sequence: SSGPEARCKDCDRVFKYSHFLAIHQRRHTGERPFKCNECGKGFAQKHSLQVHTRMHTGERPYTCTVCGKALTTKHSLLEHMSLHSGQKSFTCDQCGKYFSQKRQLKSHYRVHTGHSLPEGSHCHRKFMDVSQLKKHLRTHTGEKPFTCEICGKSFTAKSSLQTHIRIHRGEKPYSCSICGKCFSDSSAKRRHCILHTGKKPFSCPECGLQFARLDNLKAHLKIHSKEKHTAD
# T2: GST-ZBTB24 ZF1-8 C382Y (Mus musculus, UniProt Q80X44 288-519, C382Y)
# T2 sequence: T1 sequence with C95Y, G120C
# T3: ZBTB24 ZF4-8 (Mus musculus, UniProt Q80X44 375-519)
# T3 sequence: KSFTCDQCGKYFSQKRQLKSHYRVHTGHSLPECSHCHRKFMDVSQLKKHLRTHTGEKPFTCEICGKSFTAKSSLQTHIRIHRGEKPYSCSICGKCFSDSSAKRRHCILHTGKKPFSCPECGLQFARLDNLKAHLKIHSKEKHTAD
# B1: EMSA probe with ZBTB24 motif (dsDNA)
# DNA 1: TCCACTGCCAGGACCTTT
# DNA 2: AAAAGGTCCTGGCAGTGG
# B2: TG oligo (6ML2) (dsDNA)
# DNA 1: TTTAGCTGCCAGGACCTGCG
# DNA 2: ACGCAGGTCCTGGCAGCTAA
# B3: TT oligo (6ML3) (dsDNA)
# DNA 1: TTTAGCTTCCAGGACCTGCG
# DNA 2: ACGCAGGTCCTGGAAGCTAA
# B4: GT oligo (6ML4) (dsDNA)
# DNA 1: TGCTTCGTCCAGGACCTGCG
# DNA 2: ACGCAGGTCCTGGACGAAGC
# Assays:
# GST-ZBTB24 ZF1-8 C407G = target: T1, GST-ZBTB24 ZF1-8 C407G; test: EMSA
# GST-ZBTB24 ZF1-8 C382Y = target: T2, GST-ZBTB24 ZF1-8 C382Y; test: EMSA
# ZBTB24 ZF4-8 [1] = target: T3, ZBTB24 ZF4-8; test: X-ray crystallography
# ZBTB24 ZF4-8 [2] = target: T3, ZBTB24 ZF4-8; test: X-ray crystallography; remark: listed apart in the source
binder,measurement,setting,value
B1,binding result,GST-ZBTB24 ZF1-8 C407G,no binding
same,binding result,GST-ZBTB24 ZF1-8 C382Y,no binding
B2,binding result,ZBTB24 ZF4-8 [1],binds
B3,binding result,ZBTB24 ZF4-8 [1],binds
B4,binding result,ZBTB24 ZF4-8 [2],binds
